# What was measured:
# c-Src = assay: phosphorylation enrichment, bacterial display (enrichment ratio); higher = better substrate or ligand; peptides without Tyr show the background
# c-Abl (mouse) = assay: as above
# Hck = Hck (UniProt P08631); assay: as above
# MERTK = MERTK (UniProt Q12866); assay: as above
# AncSZ = assay: as above
# EPHB2 = EPHB2 (UniProt P29323); assay: as above
# Fyn = Fyn (UniProt P06241); assay: as above
# Fes = Fes (UniProt P07332); assay: as above
# Jak2 = Jak2 (UniProt O60674); assay: as above
# FGFR1 = FGFR1 (UniProt P11362); assay: as above
# FGFR3 = FGFR3 (UniProt P22607); assay: as above
# EPHB1 = EPHB1 (UniProt P54762); assay: as above
# Fer (mouse) = assay: as above
# SHP2-C SH2 = assay: SH2 binding enrichment of the phosphorylated peptide, bacterial display (enrichment ratio); higher = better substrate or ligand; peptides without Tyr show the background
# c-Src SH2 = assay: as above
# Grb2 SH2 = Grb2 SH2 (UniProt P62993); assay: as above
# 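Wherever SH2 binding enrichment of the phosphorylated peptide, bacterial display is given: peptide library displayed on the E. coli surface as eCPX fusions, selected cells deep-sequenced, score is each peptide's frequency after selection divided by its frequency in the input.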
# 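Wherever phosphorylation enrichment, bacterial display is given: 11-residue human phosphosite peptides and single-mutation variants displayed on the E. coli surface, counted by deep sequencing, each peptide's frequency after selection divided by its frequency in the unselected input library; frequency after pTyr selection over input frequency; kinase dosed for 20-30% of maximal phosphorylation in three min.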
# Chain of EPHB2 (P29323 whole entry, looked up): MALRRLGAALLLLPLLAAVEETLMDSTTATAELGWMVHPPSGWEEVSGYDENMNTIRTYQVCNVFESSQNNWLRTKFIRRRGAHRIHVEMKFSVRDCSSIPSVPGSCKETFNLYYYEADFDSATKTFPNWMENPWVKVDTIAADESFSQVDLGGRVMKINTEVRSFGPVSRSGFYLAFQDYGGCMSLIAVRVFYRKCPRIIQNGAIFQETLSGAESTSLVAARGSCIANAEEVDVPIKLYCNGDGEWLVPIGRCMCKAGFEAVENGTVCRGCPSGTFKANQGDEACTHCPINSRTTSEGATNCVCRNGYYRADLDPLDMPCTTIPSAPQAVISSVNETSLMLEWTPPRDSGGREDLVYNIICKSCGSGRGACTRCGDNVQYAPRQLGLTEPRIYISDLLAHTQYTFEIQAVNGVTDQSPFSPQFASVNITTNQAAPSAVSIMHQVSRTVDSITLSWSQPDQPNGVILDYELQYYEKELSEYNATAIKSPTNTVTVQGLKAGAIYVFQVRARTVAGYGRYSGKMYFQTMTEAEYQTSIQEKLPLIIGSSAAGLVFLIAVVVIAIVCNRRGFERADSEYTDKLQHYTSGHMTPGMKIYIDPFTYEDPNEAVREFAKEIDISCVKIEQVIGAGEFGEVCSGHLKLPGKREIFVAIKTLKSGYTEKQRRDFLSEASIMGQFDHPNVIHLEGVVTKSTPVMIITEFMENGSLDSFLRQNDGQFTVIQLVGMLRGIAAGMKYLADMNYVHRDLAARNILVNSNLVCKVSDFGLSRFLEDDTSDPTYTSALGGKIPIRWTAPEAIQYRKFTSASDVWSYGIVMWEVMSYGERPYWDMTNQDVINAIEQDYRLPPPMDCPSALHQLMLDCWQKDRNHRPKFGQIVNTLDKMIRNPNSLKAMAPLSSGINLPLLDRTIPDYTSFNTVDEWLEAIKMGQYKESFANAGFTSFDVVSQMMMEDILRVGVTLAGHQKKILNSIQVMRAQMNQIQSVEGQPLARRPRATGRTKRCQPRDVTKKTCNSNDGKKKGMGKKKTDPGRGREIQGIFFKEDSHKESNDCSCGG
# Chain of Fyn (P06241 whole entry, looked up): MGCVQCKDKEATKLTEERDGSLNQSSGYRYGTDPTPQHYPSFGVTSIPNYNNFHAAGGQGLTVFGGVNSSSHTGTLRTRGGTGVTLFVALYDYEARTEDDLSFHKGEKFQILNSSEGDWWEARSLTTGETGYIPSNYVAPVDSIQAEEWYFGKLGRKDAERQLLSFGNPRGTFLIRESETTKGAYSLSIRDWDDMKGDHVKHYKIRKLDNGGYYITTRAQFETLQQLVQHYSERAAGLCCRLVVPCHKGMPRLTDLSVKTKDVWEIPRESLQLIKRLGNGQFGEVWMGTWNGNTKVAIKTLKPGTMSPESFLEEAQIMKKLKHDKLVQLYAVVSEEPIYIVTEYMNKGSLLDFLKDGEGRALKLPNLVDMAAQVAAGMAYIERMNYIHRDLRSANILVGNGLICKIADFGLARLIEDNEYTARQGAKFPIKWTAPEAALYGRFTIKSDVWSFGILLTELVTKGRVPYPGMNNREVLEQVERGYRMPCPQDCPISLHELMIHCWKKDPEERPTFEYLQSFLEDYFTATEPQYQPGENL
# Chain of MERTK (Q12866 whole entry, looked up): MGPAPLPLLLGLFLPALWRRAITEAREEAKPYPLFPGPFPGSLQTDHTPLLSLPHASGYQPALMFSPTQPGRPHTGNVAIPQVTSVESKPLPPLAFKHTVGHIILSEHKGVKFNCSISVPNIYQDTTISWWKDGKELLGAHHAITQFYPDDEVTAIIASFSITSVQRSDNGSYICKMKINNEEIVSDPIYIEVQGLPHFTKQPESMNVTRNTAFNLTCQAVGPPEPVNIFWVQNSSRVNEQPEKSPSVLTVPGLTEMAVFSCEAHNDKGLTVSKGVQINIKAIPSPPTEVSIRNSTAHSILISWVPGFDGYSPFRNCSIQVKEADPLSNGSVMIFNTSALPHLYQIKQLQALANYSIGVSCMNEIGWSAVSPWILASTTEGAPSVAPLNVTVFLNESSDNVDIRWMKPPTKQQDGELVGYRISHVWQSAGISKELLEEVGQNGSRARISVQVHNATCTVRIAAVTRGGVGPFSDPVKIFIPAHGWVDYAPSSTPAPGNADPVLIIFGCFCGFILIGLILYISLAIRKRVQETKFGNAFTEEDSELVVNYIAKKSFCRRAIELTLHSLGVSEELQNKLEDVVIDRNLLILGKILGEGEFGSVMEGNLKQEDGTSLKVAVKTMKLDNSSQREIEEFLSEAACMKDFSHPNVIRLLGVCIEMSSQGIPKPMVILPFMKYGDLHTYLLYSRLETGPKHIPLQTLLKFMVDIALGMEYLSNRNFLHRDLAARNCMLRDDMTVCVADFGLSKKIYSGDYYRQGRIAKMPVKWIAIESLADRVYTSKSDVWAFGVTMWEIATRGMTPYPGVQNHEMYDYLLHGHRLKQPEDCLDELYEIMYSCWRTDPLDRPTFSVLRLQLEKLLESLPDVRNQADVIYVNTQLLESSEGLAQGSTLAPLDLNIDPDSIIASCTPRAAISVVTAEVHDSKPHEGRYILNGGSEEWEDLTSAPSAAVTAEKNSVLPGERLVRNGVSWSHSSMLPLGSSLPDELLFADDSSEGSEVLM
# Chain of Hck (P08631 whole entry, looked up): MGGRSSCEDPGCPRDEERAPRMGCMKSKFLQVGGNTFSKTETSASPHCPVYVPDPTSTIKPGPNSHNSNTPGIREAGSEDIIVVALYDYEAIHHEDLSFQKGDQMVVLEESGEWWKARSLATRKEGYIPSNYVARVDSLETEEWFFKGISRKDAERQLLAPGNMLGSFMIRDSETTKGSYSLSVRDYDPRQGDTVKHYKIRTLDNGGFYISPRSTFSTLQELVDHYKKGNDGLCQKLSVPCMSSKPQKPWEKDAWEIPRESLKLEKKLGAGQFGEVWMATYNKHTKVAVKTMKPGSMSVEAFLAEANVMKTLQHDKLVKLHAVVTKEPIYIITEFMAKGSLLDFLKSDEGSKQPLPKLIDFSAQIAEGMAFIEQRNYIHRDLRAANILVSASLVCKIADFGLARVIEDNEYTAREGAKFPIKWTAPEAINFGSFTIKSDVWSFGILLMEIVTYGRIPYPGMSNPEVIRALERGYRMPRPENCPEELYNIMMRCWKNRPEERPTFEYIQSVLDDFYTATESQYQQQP
# Chain of Jak2 (O60674 whole entry, looked up): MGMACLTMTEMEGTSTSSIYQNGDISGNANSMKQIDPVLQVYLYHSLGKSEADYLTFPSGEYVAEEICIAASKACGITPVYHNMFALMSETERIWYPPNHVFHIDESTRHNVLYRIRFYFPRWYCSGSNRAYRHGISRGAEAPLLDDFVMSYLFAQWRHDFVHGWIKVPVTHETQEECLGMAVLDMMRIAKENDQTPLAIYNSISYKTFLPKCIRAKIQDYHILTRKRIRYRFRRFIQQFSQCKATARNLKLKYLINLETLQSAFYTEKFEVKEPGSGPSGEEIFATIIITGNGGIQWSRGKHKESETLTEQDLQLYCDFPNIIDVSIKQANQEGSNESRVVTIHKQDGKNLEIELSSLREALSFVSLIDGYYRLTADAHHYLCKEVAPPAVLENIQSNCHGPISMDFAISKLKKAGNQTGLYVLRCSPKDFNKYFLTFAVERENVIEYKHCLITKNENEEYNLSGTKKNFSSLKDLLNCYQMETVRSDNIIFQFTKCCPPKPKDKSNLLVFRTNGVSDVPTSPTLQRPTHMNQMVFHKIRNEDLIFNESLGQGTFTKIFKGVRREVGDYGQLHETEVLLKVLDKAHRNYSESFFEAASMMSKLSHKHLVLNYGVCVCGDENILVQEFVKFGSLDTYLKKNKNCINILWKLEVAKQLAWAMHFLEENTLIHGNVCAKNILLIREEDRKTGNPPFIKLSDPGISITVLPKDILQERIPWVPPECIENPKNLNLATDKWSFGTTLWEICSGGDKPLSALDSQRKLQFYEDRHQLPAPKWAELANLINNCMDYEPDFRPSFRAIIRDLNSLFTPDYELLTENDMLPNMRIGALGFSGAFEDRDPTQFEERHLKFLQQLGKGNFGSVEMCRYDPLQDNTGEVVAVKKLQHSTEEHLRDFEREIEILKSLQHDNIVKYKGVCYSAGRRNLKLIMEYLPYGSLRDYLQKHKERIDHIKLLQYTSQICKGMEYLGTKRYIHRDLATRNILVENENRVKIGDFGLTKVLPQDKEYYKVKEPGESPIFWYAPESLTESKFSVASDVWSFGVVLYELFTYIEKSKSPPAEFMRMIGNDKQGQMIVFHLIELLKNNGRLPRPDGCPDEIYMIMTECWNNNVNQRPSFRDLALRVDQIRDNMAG
# Chain of FGFR3 (P22607 whole entry, looked up): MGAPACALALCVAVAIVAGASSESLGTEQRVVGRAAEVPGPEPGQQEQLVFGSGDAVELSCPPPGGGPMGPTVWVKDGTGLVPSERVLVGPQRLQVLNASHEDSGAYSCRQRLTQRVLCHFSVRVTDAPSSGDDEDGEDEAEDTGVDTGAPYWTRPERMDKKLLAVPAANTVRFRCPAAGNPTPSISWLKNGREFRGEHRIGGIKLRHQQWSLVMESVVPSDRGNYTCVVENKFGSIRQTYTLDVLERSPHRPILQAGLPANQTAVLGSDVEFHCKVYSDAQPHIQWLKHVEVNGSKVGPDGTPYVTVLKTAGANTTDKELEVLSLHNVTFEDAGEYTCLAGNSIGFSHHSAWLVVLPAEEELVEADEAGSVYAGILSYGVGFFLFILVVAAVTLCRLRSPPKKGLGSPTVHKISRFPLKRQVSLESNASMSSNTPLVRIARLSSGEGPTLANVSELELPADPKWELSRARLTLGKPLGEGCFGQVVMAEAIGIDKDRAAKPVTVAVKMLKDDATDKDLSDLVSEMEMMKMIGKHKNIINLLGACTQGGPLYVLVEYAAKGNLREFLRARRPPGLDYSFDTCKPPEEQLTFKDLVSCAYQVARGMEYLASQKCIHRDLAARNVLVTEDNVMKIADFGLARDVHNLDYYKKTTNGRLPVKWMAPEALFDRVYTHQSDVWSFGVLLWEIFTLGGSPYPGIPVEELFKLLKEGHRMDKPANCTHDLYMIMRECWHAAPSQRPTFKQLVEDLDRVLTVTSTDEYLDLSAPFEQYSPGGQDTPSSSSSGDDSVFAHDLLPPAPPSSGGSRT
SH2 binding enrichment (SHP2-C SH2),SH2 binding enrichment (c-Src SH2),SH2 binding enrichment (Grb2 SH2),Sequence,phosphorylation enrichment (c-Src),phosphorylation enrichment (c-Abl (mouse)),phosphorylation enrichment (Hck),phosphorylation enrichment (MERTK),phosphorylation enrichment (AncSZ),phosphorylation enrichment (EPHB2),phosphorylation enrichment (Fyn),phosphorylation enrichment (Fes),phosphorylation enrichment (Jak2),phosphorylation enrichment (FGFR1),phosphorylation enrichment (FGFR3),phosphorylation enrichment (EPHB1),phosphorylation enrichment (Fer (mouse))
0.742,1.27,0.825,AIQDAYMHITS [ADCY10_Y318],0.483,0.588,0.457,0.542,0.671,0.492,0.517,0.647,0.584,0.576,0.523,0.469,0.497
0.726,2.48,0.792,AIYEGYALPHA [ACTC1_Y171_P166A],11.3,18.1,13.7,13.8,1.77,30.1,15.9,1.37,0.789,0.761,0.773,20.8,22.6
0.847,0.846,1.37,AKLKDYFIFNK [CCDC42_Y149_YF],0.658,0.435,0.478,0.56,0.82,0.513,0.465,0.783,0.759,1.49,1,0.417,0.487
0.694,0.455,0.803,AKQVGCENAGT [PC_Y304_Y304C],0.428,0.638,0.408,0.442,0.749,0.455,0.487,0.83,0.706,0.391,0.484,0.407,0.42
0.728,0.464,0.755,AKRKGYDMRVD [NEB_Y2770],0.363,0.42,0.355,0.394,0.459,0.339,0.47,0.477,0.431,0.292,0.297,0.295,0.358
0.357,0.401,0.765,ALAHKYDGGGG [HBB_Y146_H147D],0.478,0.663,0.473,0.54,0.985,0.655,0.367,0.7,0.825,0.751,0.494,0.464,0.635
0.6,0.479,0.863,ALDHKYHGGGG [HBB_Y146_A143D],0.372,0.425,0.406,0.381,0.458,0.355,0.375,0.526,0.455,0.365,0.392,0.342,0.321
0.624,0.536,0.893,ALRASYTPSPA [ESS2_Y418],0.369,0.329,0.333,0.326,0.448,0.34,0.332,0.471,0.294,0.366,0.389,0.352,0.367
1.54,0.773,0.854,ANAYIYDVQLP [L1CAM_Y420_V421D],7.22,0.954,6.89,9.63,1.25,2.78,10.3,1.05,0.905,0.65,0.89,3.15,1.72
0.84,1.42,0.821,ANNQRYAFMPL [TMEM87B_Y460],0.485,0.528,0.393,5.61,0.588,0.591,0.436,0.696,0.621,0.535,0.566,0.655,0.394
0.783,0.506,0.834,ANSPVYVPTTR [GATA6_Y188_S184N],0.448,0.52,0.583,0.468,0.506,0.405,0.384,0.667,0.821,0.419,0.441,0.371,0.44
0.487,0.512,0.658,ANVKWYRNGRE,0.485,0.479,0.484,0.468,0.867,0.578,0.43,0.738,0.665,0.409,0.485,0.509,0.457
0.439,0.456,0.823,AQESNYRLLRR [SLC20A2_Y377],0.365,0.984,0.443,0.406,0.738,0.498,0.45,0.688,0.593,0.409,0.527,0.48,0.414
0.566,0.525,0.821,ARRHPYFFAPE [ALB_Y172_Y174F],0.721,0.538,0.402,0.588,1.09,0.635,0.58,0.746,0.726,2.85,1.86,0.546,0.559
0.769,0.535,0.761,ASIVDYNIIGW [MYH7_Y588_G584S],0.514,0.92,0.605,0.498,1.11,0.528,0.45,1.22,0.947,0.948,0.865,0.742,0.59
1.41,5.44,0.923,ASTHIYQIMNH [ITK_Y588_V587I],4.36,1.24,5.65,6.62,0.562,2.63,4.85,0.754,0.469,0.735,0.624,8.67,6.35
0.703,5.44,1.39,LSDGPYSNPYE [EPOR_Y485],3.36,3.22,,,,,,,3.98,,,,
